Article PMC3315493

Experiments:
[1] = target: tetherin Y6,8A (stably expressed in 293T/tetherin Y6,8A cells) (UniProt Q10589); test: co-immunoprecipitation (anti-tetherin IP, Western blot, LiCor quantitative imager); settings: MOI of 2, 48 h post infection
[2] = target: Vpu of wildtype HIV-1 NL4.3 (expressed from the virus); test: as above; settings: 293T/tetherin Y6,8A cells, MOI of 2, 48 h post infection, read off a plot

## Vpu of wildtype HIV-1 NL4.3 (expressed from the virus) E59A; L63A; V64A
[1]; UBAP1 siRNA, parent: est. 1.3, read off a plot
  response (ratio Vpu/tetherin band intensity in IP): 0.9
[1]; control siRNA, parent: est. 1.6, read off a plot
  response (ratio Vpu/tetherin band intensity in IP): 0.5

## human tetherin (stably expressed in 293T/tetherin cells) (from UniProt Q10589) Y6A; Y8A
[2]; UBAP1 siRNA
  response (ratio Vpu/tetherin band intensity in IP): 1.3
[2]; control siRNA
  response (ratio Vpu/tetherin band intensity in IP): 1.6
